Measured values as given in PMC5141497, “NMR studies on the interactions between yeast Vta1 and Did2 during the multivesicular bodies sorting pathway” (Scientific Reports, 2016).

Target: T1, Vta1 N-terminal domain (residues 1–167) (S. cerevisiae, UniProt Q06263 1-167)
T1 construct: Vta1, S. cerevisiae, N-terminal domain with two tandem MIT domains, residues 1-167; Isotope labelled (15N, 13C, 70% 2H) or unlabelled, depending on the NMR sample; also called Vta1NTD; WT Vta1NTD; source: E. coli BL21(DE3), purified (Ni-NTA, ULP1 cleavage, second Ni-NTA, Resource Q); not shown: His6, N-terminal, cleaved; SUMO, N-terminal, cleaved
T1 sequence (looked up): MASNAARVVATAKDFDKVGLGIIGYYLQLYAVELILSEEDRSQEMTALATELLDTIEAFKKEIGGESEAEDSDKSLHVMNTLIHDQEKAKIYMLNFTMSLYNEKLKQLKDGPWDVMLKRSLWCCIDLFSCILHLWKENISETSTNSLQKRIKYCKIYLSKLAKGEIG
Assay: ITC; about 0.1 mM Vta1NTD titrated with 2.0 mM Did2_(176–204) peptide, iTC-200, 25 °C, 25 mM sodium phosphate pH 7.0, 50 mM NaCl, one set of sites model
Conditions: both partners purified

B1: Did2 fragment (176–204 aa) (peptide)
chain: WNVPEIKAKEVNVDDEKEDKLAQRLRALRG
notes: extra tryptophan inserted at the N-terminus of the peptide to estimate its concentration; Natural stretch with one added N-terminal Trp; Isotope labelled (15N, 13C) or unlabelled, depending on the NMR sample; source: E. coli BL21(DE3), purified (Ni-NTA, Resource Q, ULP1 cleavage, Superdex 75), lyophilized; not shown: His6, N-terminal, cleaved; SUMO, N-terminal, cleaved
Q: What does the source list for B1?
A: Kd: 12.8 ± 1 µM; dH: -2.7 kcal/mol; stoichiometry N: 1.16 ± 0.0266
